Laboratory results published in patent US20150044245A1, “PARTIAL MHC CONSTRUCTS AND METHODS OF USE” (Oregon Health & Science University, priority 2012, published 2015).
Like-named read-outs stand apart in the source and are kept apart here.

Key:
[1] = system: mMOG-35-55-induced EAE in DR*1501-Tg mice
[2] = molecular target: T1, CD74 (Mus musculus, UniProt P04441); assay: Competition with labeled RTL1000 for binding to immunoprecipitated CD74; details: unlabeled competitor
T1 construct: DR*1501-Tg splenocytes were biotinylated and lysed as described above and CD74 was immunoprecipitated overnight; endogenous in cells; host or cells: splenocytes of DR*1501-Tg mice (surface-biotinylated, lysed in 1% CHAPS/TEN; CD74 captured on Protein L / ln-1 beads)
T1 sequence (P04441 1-215 isoform P04441-2): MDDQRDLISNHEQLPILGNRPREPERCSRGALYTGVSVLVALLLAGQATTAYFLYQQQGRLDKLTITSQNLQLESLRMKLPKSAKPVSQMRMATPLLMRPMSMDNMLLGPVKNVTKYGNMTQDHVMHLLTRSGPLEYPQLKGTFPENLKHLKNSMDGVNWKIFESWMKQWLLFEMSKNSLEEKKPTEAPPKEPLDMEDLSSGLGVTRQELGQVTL
Description: (§1) For direct binding of RTL constructs, Protein-L/ln-1/CD74 complexes were prepared as described above. Labeled ligand constructs were incubated for 4 hours at 4° C. in 1% CHAPS in TEN buffer and free ligand was removed by extensive washing. Elution of bound proteins was carried out as described above and the eluate was analyzed by SDS-P AGE. […] In all assays involving fluorescent labeling, the chromophore was detected by scanning at the appropriate wavelength using a Molecular Imager® FX scanner (Bio-Rad) and the fluorescence intensity was determined using Quantity One® software (Bio-Rad) associated with the imager.

[3] = molecular target: T1, CD74; assay: Coimmunoprecipitation of FITC-labeled constructs with CD74; assay type: binding; details: FITC-labeled construct, bead-immunopurified CD74
Description: For immunoprecipitation experiments, antibody TU39 (BD Pharmingen) was pre-bound to bead-conjugated Protein A for 2 hours in ice-cold TEN-TX100 or TEN-CHAPS followed by RTL binding to these complexes. Lysate (previously pre-cleared with bead-conjugated Protein A) was added to the tube and binding was carried out overnight at 4° C. with soft orbital shaking Samples were extensively washed with TEN buffer and the appropriate detergent. For CD74 immunoprecipitation, ln-1 mAb was adsorbed to bead-conjugated Protein L as described above and pre-cleared lysate was added to this mixture. When necessary, bound material was eluted by boiling the immune complexes in electrophoresis sample buffer and analyzed by SDS-PAGE and Western blot.
as §1

[4] = molecular target: MHC class II from DR*1501-Tg mice; assay: Direct binding of FITC-labeled constructs to MHC class II immuno-adsorbed from CD74-depleted lysate; parameters: species or system mouse; details: FITC-labeled ligand, read-out: MHC Class II One binding site KD
Description: In order to test ligand binding to the separate components of the RTL receptor, DR*1501-Tg splenocytes were biotinylated and lysed as described above and CD74 was immunoprecipitated overnight at 4° C. with the anti-CD74 monoclonal antibody ln-1. Immune complexes (Protein L-beads/ln-1/CD74) were analyzed for their ability to bind FITC-labeled pDR2RTL constructs by performing a direct binding saturation with increasing concentration of the different constructs (0 to 10 nM). Binding was carried out for 4 hours at 4° C. with gentle shaking and in the presence of 1% CHAPS in TEN buffer. Afterwards the complexes were washed thoroughly with 1% CHAPS/TEN and once with only TEN buffer to remove excess detergent. Bound proteins were eluted in 2% SDS electrophoresis sample buffer at 90° C. for 6 to 8 minutes and beads were sedimented. After the supernatant was collected and proteins separated using 10-20% SDS-PAGE, the gel was scanned for FITC chromophore and quantified by densitometry. Ligand concentration was plotted versus the fluorescence intensity of the bands and the curve generated was fit to one or two binding sites with the GraphPad Prism® Software. […] Direct binding to saturating concentrations of the pDR2 constructs was carried out and analyzed as described above.

[5] = molecular target: T2, CD74 (Mus musculus, UniProt P04441); assay: CD74 cell-surface expression on CD11b+ monocytes in vitro (FACS); assay type: cell-based; details: naïve CD11b+ monocytes, 1 hour at 37° C.
T2 construct: endogenous in cells; host or cells: CD11b+ monocytes of DR2 (DR*1501)-Tg mice: naive blood cells in vitro; blood, spleen and spinal cord cells of treated EAE mice
T2 sequence (P04441 1-279): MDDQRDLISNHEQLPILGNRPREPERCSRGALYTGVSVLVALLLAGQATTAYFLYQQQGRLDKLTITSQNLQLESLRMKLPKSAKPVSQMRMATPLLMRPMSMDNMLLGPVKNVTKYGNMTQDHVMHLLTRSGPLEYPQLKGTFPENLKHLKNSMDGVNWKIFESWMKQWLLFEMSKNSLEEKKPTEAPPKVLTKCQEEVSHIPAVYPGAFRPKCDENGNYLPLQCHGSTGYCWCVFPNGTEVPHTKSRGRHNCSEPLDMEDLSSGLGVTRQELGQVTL
Description: Analysis of naive DR2 PBMC subtypes was preformed using four-color (fluorescein isothiocyanate (FITC), phycoerythrin (PE), propidium iodide, allophycocyanin) flow cytometry. Blood was collected from naive DR2 mice through cardiac exsanguination into 1X PBS/EDTA. After washing blood in 1X PBS, the red blood cells were lysed with 1X RBC lysis buffer (eBioscience, Inc., San Diego, Calif.) followed by two washes in RPMI. One million cells were incubated in RPMI with 1 μg unlabeled pDR2, 1 μg pDR2FITC, or 1 μg Fab Neutralized pDR2FITC for one hour at 37° C. For samples assessing Fab neutralization of pDR2 binding, pDR2s were incubated with 1:1 molar ratio of Fab1B11 or FabD2 for two hours at room temperature prior to incubation with cells, pDR2 incubation was followed directly by a 30 minute incubation at 4° C. with CD3 PE (ebioscience, Inc., San Diego, Calif.), CD74 PE (Santa Cruz Biotechnology, Inc., Santa Cruz, Calif.), or CD11b PE, CD11b allophycocyanin, CD11c allophycocyanin, CD19 allophycocyanin (BD Pharmingen, San Diego, Calif.). Antibodies and pDR2 were thoroughly removed by two additional washes in 1X PBS/0.5% BSA staining media. Cells were resuspended in staining media containing propidium iodide and immediately analyzed with a FACSCALIBUR™ using FCS EXPRESS™ software (BD Biosciences, San Jose, Calif.). […]

B1: DR-α1: construct comprising DR-α1 domain alone (with no DR2-β1 domain or peptide) (protein)
chain: IKEEHVIIQAEFYLNPDQSGEFMFDFDGDEIFHVDMAKKETVWRLEEFGRFASFEAQGALANIAVDKANLEIMTKRSNYTPITN
CDI ([1]; 100 μg daily X2 (Table 12)): 32.9 ± 7.8 | Incidence ([1]; 100 μg daily X2 (Table 12)): 4/4 | Mortality ([1]; 100 μg daily X2 (Table 12)): 0 | Onset ([1]; 100 μg daily X2 (Table 12)): 10.0 ± 1.2 | Peak ([1]; 100 μg daily X2 (Table 12)): 2.6 ± 0.5 | CDI ([1]; 300 μg daily X2 (Table 12)): 24.1 ± 10.3 | Incidence ([1]; 300 μg daily X2 (Table 12)): 11/11 | Mortality ([1]; 300 μg daily X2 (Table 12)): 0 | Onset ([1]; 300 μg daily X2 (Table 12)): 9.5 ± 0.8 | Peak ([1]; 300 μg daily X2 (Table 12)): 2.3 ± 0.6 | CDI ([1]; 500 μg daily X2 (Table 12)): 20.7 ± 12.7 | Incidence ([1]; 500 μg daily X2 (Table 12)): 10/10 | Mortality ([1]; 500 μg daily X2 (Table 12)): 0 | Onset ([1]; 500 μg daily X2 (Table 12)): 9.6 ± 0.7 | Peak ([1]; 500 μg daily X2 (Table 12)): 2.5 ± 0.7 | CDI ([1]; 1000 μg daily X2 (Table 12)): 21.1 ± 9.9 | Incidence ([1]; 1000 μg daily X2 (Table 12)): 6/6 | Mortality ([1]; 1000 μg daily X2 (Table 12)): 0 | Onset ([1]; 1000 μg daily X2 (Table 12)): 10.7 ± 1.0 | Peak ([1]; 1000 μg daily X2 (Table 12)): 2.3 ± 0.4 | effect on EAE (in words) ([1]; mMOG-35-55-induced EAE): lower than those treated with vehicle alone | competition with pDR2/hMOG-35-55 for binding to CD74 (in words) [2]: competed with pDR2/hMOG-35-55 for binding to CD74 | coimmunoprecipitation with CD74 (in words) [3]: coimmunoprecipitated with CD74 | Kd [4]: > 10 nM | CD74 expression versus construct binding/concentration (in words) [5]: inverse relationship between pMHC concentration and CD74 expression
